The first experiment has as its target mTOR (FRB)-N-Luciferase reporter. As to the kind of experiment: split-luciferase complementation (dual element luciferase assay). Details: unit not given here. The following applies: HEK293T cells, rapamycin treatment; parent: est. 13; read off a plot.
For the molecule FKBP12-C-Luc (from UniProt P62942) K48R, the response stood at 16. The same measure, in the same setting: with FKBP12-C-Luc (from UniProt P62942) K48Q the figure was 5; with FKBP12-C-Luc (from UniProt P62942) K45Q, 1.9. With “FKBP12-C-Luc (from UniProt P62942) E108A”, the response was 5.5. In the case of FKBP12-C-Luc (from UniProt P62942) K45R, the response is 13. The same measure, in the same setting: with FKBP12-C-Luc (from UniProt P62942) K53Q the figure was 10; with FKBP12-C-Luc (from UniProt P62942) K53R, 16.

The target in the next experiment is T1, SIRT2 (Homo sapiens, UniProt Q8IXJ6).
T1 construct: GST-tagged SIRT2 expressed in E. coli BL21
T1 sequence (Q8IXJ6 2-389): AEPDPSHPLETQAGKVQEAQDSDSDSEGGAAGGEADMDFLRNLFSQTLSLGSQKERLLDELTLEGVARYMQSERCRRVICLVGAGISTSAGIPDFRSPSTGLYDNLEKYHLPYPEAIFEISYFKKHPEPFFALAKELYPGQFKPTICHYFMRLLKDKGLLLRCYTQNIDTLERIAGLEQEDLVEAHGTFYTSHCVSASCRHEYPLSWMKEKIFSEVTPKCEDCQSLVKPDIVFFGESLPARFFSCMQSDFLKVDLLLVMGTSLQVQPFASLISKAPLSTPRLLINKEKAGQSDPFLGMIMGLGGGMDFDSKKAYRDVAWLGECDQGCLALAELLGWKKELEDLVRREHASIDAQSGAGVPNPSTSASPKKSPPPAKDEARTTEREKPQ
As to the kind of experiment: ITC; also label-free MST (Kd […]) and native PAGE. It is filed as binding.
Details: not given
As to `CO[C@H]1C[C@@H]2CC[C@@H](C)[C@@](O)(O2)C(=O)C(=O)N2CCCC[C@H]2C(=O)O[C@H]([C@H](C)C[C@@H]2CC[C@@H](O)[C@H](OC)C2)CC(=O)[C@H](C)/C=C(\C)[C@@H](O)[C@@H](OC)C(=O)[C@H](C)C[C@H](C)/C=C/C=C/C=C/1C` [Rapamycin], the Kd was 9.5 nM.

For orientation: Kd means a measure of binding affinity in units of concentration.
